Source: patent US20160175384A1 (published 2016)
Square brackets hold non-standard residues; d marks the D form. Side chains are listed from the residue outwards. * marks the point of attachment. IR800CW = near-infrared dye IRDye800CW (maleimide); Cy5 = Cy5 fluorescent dye (maleimide); d2Nal = N[C@H](Cc1ccc2ccccc2c1)C(=O)O; Butanoyl(4-Ph) = O=C(CCCc1ccccc1)*; Butanoyl(4-ethynyl) = C#CCCCC(=O)*; hPhe = N[C@@H](CCc1ccccc1)C(=O)O; Nle = CCCC[C@H](N)C(=O)O; Mpa = O=C(O)CCS

Experiments:
[1] = molecular target: T1, human melanocortin 1 receptor (human, UniProt Q01726 1-317); assay: cell-based or functional assay
T1 sequence (Q01726 whole entry): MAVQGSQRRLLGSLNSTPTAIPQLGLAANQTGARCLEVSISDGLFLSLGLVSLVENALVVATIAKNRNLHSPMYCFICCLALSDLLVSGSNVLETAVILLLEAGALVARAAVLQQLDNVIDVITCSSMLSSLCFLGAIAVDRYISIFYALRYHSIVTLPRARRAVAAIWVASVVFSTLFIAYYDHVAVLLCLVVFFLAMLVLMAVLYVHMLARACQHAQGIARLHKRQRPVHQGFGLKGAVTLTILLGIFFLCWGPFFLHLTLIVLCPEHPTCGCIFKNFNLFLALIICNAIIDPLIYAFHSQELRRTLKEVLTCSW

[2] = molecular target: MC5R expressed in the kidneys of the xenograft-bearing mice; assay: cell-based or functional assay
Chain of MC5R expressed in the kidneys of the xenograft-bearing mice (P41149 whole entry): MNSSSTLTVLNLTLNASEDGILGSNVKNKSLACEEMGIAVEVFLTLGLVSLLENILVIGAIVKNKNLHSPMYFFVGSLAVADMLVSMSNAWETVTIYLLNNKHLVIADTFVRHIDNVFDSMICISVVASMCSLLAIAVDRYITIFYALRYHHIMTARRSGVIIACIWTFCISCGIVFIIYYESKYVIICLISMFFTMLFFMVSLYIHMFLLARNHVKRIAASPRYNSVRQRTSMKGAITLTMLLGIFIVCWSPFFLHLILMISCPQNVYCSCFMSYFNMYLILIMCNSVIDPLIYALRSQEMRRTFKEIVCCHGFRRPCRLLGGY

[3] = molecular target: T1, human melanocortin 1 receptor; assay: competition binding vs Eu-NDP-a-MSH, time-resolved fluorescence, A375/hMC1R cells
[4] = molecular target: T1, human melanocortin 1 receptor; assay: competitive binding vs Eu-NDP-alpha-MSH, time-resolved fluorescence, HCT116/hMC1R cells
Protocol: (§1) Competitive binding assays were performed using HCT116/hMC1R cells and HEK293/hMC4R or hMC5R as previously described, with slight modifications. HCT116/hMC1R cells were plated in black PerkinElmer 96-well plates and HEK293/hMC4R and HEK293/hMC5R cells were plated on SigmaScreen Poly-D-Lysine Coated Plates (SigmaAldrich), all at a density of 10,000-30,000 cells/well. Poly-D-Lysine Coated Plates contain a PDL polymer coating that creates a uniform positive charge at the surface of the plastic, thereby facilitating cell attachment, growth and differentiation. […] Both labeled and non-labeled ligands were diluted in binding media (DMEM, 1 mM 1,10-phenanthroline, 200 mg/L bacitracin, 0.5 mg/L leupeptin, 0.3% BSA). In the case of the triblock polymer micelle solutions, micelles were allowed to equilibrate in solution for a period of 30 min prior to cell addition. Cells were incubated with labeled and non-labeled ligands for 1 hour at 37° C. Following incubation, cells were washed three times with wash buffer (50 mM Tris-HCl, 0.2% BSA, 30 mM NaCl) and 50 µL of enhancement solution (PerkinElmer) was added to each well. Cells were incubated for an additional 30 min at 37° C. prior to reading. […] Competition curves were analyzed with GraphPad Prism software using the sigmoidal dose-response (variable slope) classical equation for nonlinear regression analysis.

[5] = molecular target: T2, human melanocortin 5 receptor (human, UniProt P33032 1-325); assay: competitive binding vs Eu-NDP-alpha-MSH, time-resolved fluorescence, HEK293/hMC5R cells
T2 construct: whole, on cells; also called hMC5R; MC5R
T2 sequence (P33032 whole entry): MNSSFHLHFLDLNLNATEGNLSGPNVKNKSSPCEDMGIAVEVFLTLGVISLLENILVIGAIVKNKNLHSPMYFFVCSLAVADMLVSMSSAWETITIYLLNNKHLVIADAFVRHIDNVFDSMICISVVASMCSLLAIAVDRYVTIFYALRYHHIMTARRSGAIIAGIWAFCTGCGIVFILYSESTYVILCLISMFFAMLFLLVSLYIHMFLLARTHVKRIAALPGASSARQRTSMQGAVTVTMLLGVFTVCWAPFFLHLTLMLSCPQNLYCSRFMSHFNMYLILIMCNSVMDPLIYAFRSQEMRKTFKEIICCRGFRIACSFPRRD
Protocol: as §1

[6] = molecular target: T1, human melanocortin 1 receptor; assay: competitive binding vs Eu-NDP-alpha-MSH, HCT116/hMC1R cells
[7] = molecular target: T3, human melanocortin 4 receptor (human, UniProt P32245 1-332); assay: competitive binding vs Eu-NDP-alpha-MSH, time-resolved fluorescence, HEK293/hMC4R cells
T3 construct: whole, on cells; also called hMC4R; MC4R
T3 sequence (P32245 whole entry): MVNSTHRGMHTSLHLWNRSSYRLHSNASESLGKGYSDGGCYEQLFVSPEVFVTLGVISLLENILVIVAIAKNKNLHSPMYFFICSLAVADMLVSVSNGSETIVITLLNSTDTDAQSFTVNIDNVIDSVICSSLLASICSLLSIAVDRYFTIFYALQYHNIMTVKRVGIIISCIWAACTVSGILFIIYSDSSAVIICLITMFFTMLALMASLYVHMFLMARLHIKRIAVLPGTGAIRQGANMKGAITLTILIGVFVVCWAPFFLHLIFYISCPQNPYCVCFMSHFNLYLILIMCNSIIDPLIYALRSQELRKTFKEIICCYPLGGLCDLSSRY
Protocol: as §1

[8] = molecular target: T1, human melanocortin 1 receptor; assay: ratio of Ki values (MC4R over MC1R) from Eu-NDP-alpha-MSH competitive binding
[9] = molecular target: T1, human melanocortin 1 receptor; assay: ratio of Ki values (MC5R over MC1R) from Eu-NDP-alpha-MSH competitive binding

B1: 4-phenylbutyryl-His-DPhe-Arg-Trp-Gly-Lys(Mpr-IR800CW)-NH2 (peptide)
peptide: {Butanoyl(4-Ph)}-H[dF]RWGK([Mpa-IR800CW])-NH2
notes: Near-infrared dye conjugate of the MC1R ligand; also called MC1RL-800; MC1RL-800 probe
**Q.** What does the source list for B1?
**A.** probe-related fluorescence signal in A375/MC1R tumors after co-injection of 0.25 ug NDP-a-MSH, relative to the unblocked tumor, 2 hr after injection [1]: 1.54 fold; probe-related fluorescence signal in A375 tumor after co-injection of 0.25 ug NDP-a-MSH, relative to the unblocked tumor, 2 hr after injection [1]: 1.4 fold; renal uptake of MC1RL-800 after co-injection of 1 nmol/kg MC4R/5R-selective ligand (SEQ ID NO:10), compared to control animals, 2 hr after injection [2]: 1.56 fold; Ki [3]: 0.4 nM

B2: Ac-Homophenylalanine-His-DPhe-Arg-Trp-NH2 (peptide)
peptide: Ac-[hPhe]H[dF]RW-NH2
notes: Synthetic; also called compound 2
**Q.** B2 was tested. Which Ki [4] did it give?
**A.** 1.77 nM

**Q.** What about the Ki [5] of the same binder?
**A.** 58.2 nM

B3: 4-phenylbutyryl-His-DPhe-Arg-Trp-Gly-Lys(hex-5-ynoyl)-NH2 (peptide)
peptide: {Butanoyl(4-Ph)}-H[dF]RWGK(Butanoyl(4-ethynyl))-NH2
SMILES: C#CCCCC(=O)NCCCC[C@H](NC(=O)CNC(=O)[C@H](Cc1c[nH]c2ccccc12)NC(=O)[C@H](CCCNC(=N)N)NC(=O)[C@@H](Cc1ccccc1)NC(=O)[C@H](Cc1c[nH]cn1)NC(=O)CCCc1ccccc1)C(N)=O
notes: Synthetic; alkyne-functionalised form of compound 1; also called compound 4
**Q.** How did the Ki [4] turn out when B3 was run?
**A.** 0.24 nM

**Q.** What about the Ki [6] of the same binder?
**A.** 1.17 nM

B4: H-Tyr-Val-Nle-Gly-His-DNal(2′)-Arg-DTrp-Asp-Arg-Phe-Gly-NH2 (peptide)
peptide: YVLGHXRWDRFG
modifications: Nle; DNal(2′); DTrp; C-terminal amide (NH2)
notes: Synthetic; also called compound 5; ligand 5
**Q.** Which Ki [5] does the source give for B4 here?
**A.** 0.76 nM

B5: H-Tyr-Val-Nle-Gly-His-DNal(2′)-Arg-DPhe-Asp-Arg-Phe-Gly-NH2 (peptide)
peptide: H-YV[Nle]GH[d2Nal]R[dF]DRFG-NH2
SMILES: CCCC[C@H](NC(=O)[C@@H](NC(=O)[C@@H](N)Cc1ccc(O)cc1)C(C)C)C(=O)NCC(=O)N[C@@H](Cc1c[nH]cn1)C(=O)N[C@H](Cc1ccc2ccccc2c1)C(=O)N[C@@H](CCCNC(=N)N)C(=O)N[C@H](Cc1ccccc1)C(=O)N[C@@H](CC(=O)O)C(=O)N[C@@H](CCCNC(=N)N)C(=O)N[C@@H](Cc1ccccc1)C(=O)NCC(N)=O
notes: Synthetic; also called compound 7; ligand 7
**Q.** How did the Ki [4] turn out when B5 was run?
**A.** 5.64 nM

**Q.** What about the Ki [5] of the same binder?
**A.** 0.71 nM

**Q.** What about the Ki [7] of the same binder?
**A.** 0.77 nM

**Q.** What about the “1R/4R (selectivity ratio against MC4R)” value [8] of the same binder?
**A.** 0.13

**Q.** What about the “1R/5R (selectivity ratio against MC5R)” value [9] of the same binder?
**A.** 0.13

B6: H-Lys(hex-5-ynoyl)Tyr-Val-Nle-Gly-His-DNal(2′)-Arg-DPhe-Asp-Arg-Phe-Gly-NH2 (peptide)
peptide: H-K(Butanoyl(4-ethynyl))YV[Nle]GH[d2Nal]R[dF]DRFG-NH2
SMILES: C#CCCCC(=O)NCCCC[C@H](N)C(=O)N[C@@H](Cc1ccc(O)cc1)C(=O)N[C@H](C(=O)N[C@@H](CCCC)C(=O)NCC(=O)N[C@@H](Cc1c[nH]cn1)C(=O)N[C@H](Cc1ccc2ccccc2c1)C(=O)N[C@@H](CCCNC(=N)N)C(=O)N[C@H](Cc1ccccc1)C(=O)N[C@@H](CC(=O)O)C(=O)N[C@@H](CCCNC(=N)N)C(=O)N[C@@H](Cc1ccccc1)C(=O)NCC(N)=O)C(C)C
notes: Synthetic; alkyne analogue of ligand 7; also called compound 8; ligand 8
**Q.** For B6, which Ki [4] is on record?
**A.** 4.19 nM

**Q.** What about the Ki [5] of the same binder?
**A.** 3.9 nM

**Q.** What about the Ki [7] of the same binder?
**A.** 4.4 nM

**Q.** And the “1R/4R (selectivity ratio against MC4R)” value [8]?
**A.** 1.05

**Q.** What about the “1R/5R (selectivity ratio against MC5R)” value [9] of the same binder?
**A.** 0.93

B7: 4-phenylbutyryl-His-DPhe-Arg-Trp-NH2 (peptide)
peptide: {Butanoyl(4-Ph)}-H[dF]RW-NH2
notes: Synthetic peptidomimetic; also called compound 1
**Q.** B7 was tested. Which Ki [4] did it give?
**A.** 0.17 nM

B8: MC1R-Cy5 probe (peptide)
peptide: {Butanoyl(4-Ph)}-H[dF]RWGK([Mpa-Cy5])-NH2
notes: also called Cy5 conjugated ligand; MC1R-635 probe
**Q.** With B8 as the binder, how does the Ki [3] read?
**A.** 0.3 nM
